From the RNAGym collection of RNA variant scans (doi:10.1073/pnas.2313332121)

B1: TPR t1 (parent)
chain: GACCAAUCUGCCCUCAGAGCUCGAGAACAUCUUCGGAUGCAGAGGAGGCAGGCUUCGGUGGCGCGAUAGCGCCAACGUCCUCAACCUCCAAUGCAUCCCACCACAUGAUGAUGCCUGAAGAGCCUUGGUUUUUUG

Variants of: B1
Experiment: polymerase ribozyme fitness, log enrichment relative to wild type (log ratio); higher = more active; in vitro selection for triplet polymerase activity
In short: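 Each subunit of a heterodimeric triplet polymerase ribozyme was mutagenized into a library by PCR, transcribed, and subjected to one round of in vitro selection, run in triplicate. Libraries were annealed with a biotinylated primer, the partner subunit and triplets, incubated frozen at −7 °C, and extended constructs were gel-excised, captured on streptavidin beads and recovered by RT-PCR. Input and output libraries were sequenced on Illumina, keeping genotypes with ≥10 input reads and ≥1 read per output. Fitness is log base 2 of genotype enrichment divided by wild-type enrichment, from inverse-variance-weighted replicate averages.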

In order of rising “polymerase ribozyme fitness (log ratio)” value:
1. A46U C88U A103G  -7.61
2. A46U C49U U92A U106A  -7.34
3. A46C U92C U106G C115U U125G U132A  -6.92
4. A46G G48A C64A  -6.8
5. A46U C98G  -6.78
6. A46G C79A A91U A105U C124A U125A  -6.73
7. A46C C80G U130C  -6.42
8. A46C G47U  -5.94
9. A46G A68U C114G  -5.84
10. A46G G71A C80A U129C  -5.8
11. A46U C62G G110A  -5.8
12. A46U C62A A68G G110A  -5.73
13. A46U C64U U109A C124A  -5.73
14. A46C C79A C85G  -5.69
15. A46C U54A A66C U87G G113U  -5.68
16. A46U C62U C86A A100U C104A G110C U134G  -5.64
17. A46U C80U A103U A121U G135A  -5.5
18. A46U C49U G63U C115U  -5.27
19. A46U C62U A91U A103G U106A C114U  -5.16
20. A46U A95G C115U G128A  -4.98
21. A46G G107A  -4.88
22. A46G C72U C73G G117C  -4.79
23. A46G G69A G110A  -4.77
24. A46C G63C G93A U116A G120U G135U  -4.76
25. A46U A84C C104A G128U  -4.76
26. A46G C97U C114G  -4.73
27. A46U C80A  -4.71
28. A46U C62U C94G U131G  -4.7
29. A46U C53U A91U G113U U130A  -4.7
30. A46G C86G C101A C114U  -4.69
31. A46G G58U G69A G110A  -4.68
32. A46U C73G A74G U96A  -4.63
33. A46U C49U A74U C102U  -4.53
34. A46U A50U G61U U125C  -4.52
35. A46C C79U C101U G113U  -4.4
36. A46C G69A C72A  -4.32
37. A46U C82A C86U G110U U131A  -4.27
38. A46G C56A C62G U130G U131C  -4.26
39. A46U A84U A95U C102A  -4.22
40. A46G G58A A83C G107U A121C  -4.18
41. A46C G69C U81C U112G  -4.07
42. A46C G61A C80A  -3.96
43. A46U C72G A83G G117A U133G  -3.93
44. A46U G57C C79U C85A G120U  -3.83
45. A46U G48C G128U  -3.83
46. A46G A74U G77A G113U  -3.68
47. A46U C73U C82U G93U G110U  -3.63
48. A46U C73G G77A G127C  -3.61
49. A46G C56A A84C C104A C115U A118U A119U  -3.57
50. A46U C82U G93U G110U  -3.55
51. A46U C56U C72G C123G  -3.53
52. A46C G48A G51A  -3.51
53. A46C G69C C85A  -3.49
54. A46C G128C  -3.42
55. A46U A74G C101A  -3.42
56. A46C C80A  -3.23
57. A46G G69C G113A  -3.12
58. A46U C79U A105G  -3.11
59. A46G C62U G117U  -3.06
60. A46C C72U U78C G93U G122A U133G  -3.05
61. A46U G52U C104U G110A  -3.02
62. A46C C114U U130G  -3.02
63. A46C U81A G93U  -2.96
64. A46C C79G  -2.93
65. A46U C64U C114U  -2.92
66. A46U C114A  -2.92
67. A46C G69A  -2.87
68. A46G C56U G110U U116A  -2.84
69. A46G C104A G113A  -2.84
70. A46G C73A A108G  -2.82
71. A46C U78C C101G  -2.77
72. A46C U87C C89G U92C  -2.75
73. A46U C73U G110A  -2.67
74. A46G C49A C56A A66C  -2.64
75. A46C C115G  -2.59
76. A46C G63A U96A  -2.58
77. A46G C49U C86A G93A  -2.56
78. A46G U55C C70U A100U G127A  -2.53
79. A46U C62A U133A  -2.52
80. A46U C85U  -2.5
81. A46U G60C C114A  -2.44
82. A46U G47A C49U G61C C72U C85G  -2.44
83. A46U A74U U87G G93A C98U  -2.38
84. A46U C94G  -2.36
85. A46C G117A  -2.35
86. A46C C101G  -2.34
87. A46U G52U  -2.32
88. A46U G48U  -2.29
89. A46C C79A  -2.25
90. A46G G69U U78A C94U C115A G127C  -2.24
91. A46U C79U  -2.22
92. A46U C49G C70U A84C  -2.21
93. A46U G47A  -2.18
94. A46U C70A  -2.18
95. A46C G77U A100C  -2.17
96. A46G G69C  -2.16
97. A46U C64U  -2.1
98. A46C U126G  -2.07
99. A46U A66G C123A  -2.03
100. A46C G63U  -2.01
101. A46C U92C  -1.97
102. A46G C80U C94U  -1.95
103. A46U C101U U132C  -1.92
104. A46C G93U  -1.86
105. A46U C56G U78G C85U  -1.84
106. A46G G60U C94U  -1.81
107. A46U C49G  -1.75
108. A46U A74U C82A  -1.61
109. A46U C88U  -1.61
110. A46U C70A G120U  -1.59
111. A46U G60A  -1.55
112. A46U C72U  -1.53
113. A46U C73A  -1.49
114. A46G A66G  -1.48
115. A46C U125A  -1.48
116. A46U A74C U92C  -1.48
117. A46G C76U C94G G120C  -1.42
118. A46U C73G U133G  -1.42
119. A46U C56U C101U  -1.33
120. A46C C76G G122A  -1.33
121. A46G G47U  -1.31
122. A46U C70U  -1.31
123. A46C C79A G120A  -1.25
124. A46G G63C  -1.22
125. A46G C53A G127C  -1.2
126. A46G G71U  -1.19
127. A46U G48A G52C G61A G120A  -1.18
128. A46U C82G U87G  -1.06
129. A46G G48A  -0.934
130. A46C U54A  -0.931
131. A46U G48A G52C G61U G120A  -0.93
132. A46G A74G U92C  -0.91
133. A46C G120A U126A  -0.908
134. A46U A74U  -0.906
135. A46G C82U U106A  -0.902
136. A46G A83G  -0.884
137. A46G C86A G120C  -0.884
138. A46U C53G  -0.865
139. A46G C88U  -0.84
140. A46C G60C  -0.75
141. A46U C53A C73A  -0.67
142. A46U C123A  -0.661
143. A46G C56A  -0.525
144. A46C U55A G63C  -0.439
145. A46U C49A  -0.332
146. A46G G61U  -0.252
147. A46C U78A  -0.208
148. A46G A50U C88A C89A C124A U133A  -0.0922
149. A46G C70U  -0.0806
150. A46G C56U  -0.0715
151. A46C U87G A100U  -0.0504
152. A46G G57A A83G U112C  0.022
153. A46G C56G  0.084
154. A46G G60A  0.0971
155. A46G U106A  0.118
156. A46U C123U  0.165
157. A46G U87C  0.254
158. A46C C86U C88A A121C U130C  0.304
159. A46U A74U A119G  0.444
160. A46U C49U C72A  0.459
161. A46U G47A C72U A121G U130C  0.526
162. A46G A121U U126A  0.577
163. A46C U112A  0.587
164. A46G C72A  0.745
165. A46U C101U A121U  0.775
166. A46C G120C  1.36
167. A46G C53G A111G  1.36
